Numbering of substitutions follows the chain as printed.
Columns and labels:
[1] = biological target: T1, His-tagged recombinant Cynomolgus FAPα (Acro Biosystems, Cat #FAP-C52H3-100ug) (cynomolgus monkey, UniProt A0A2K5VGF4 26-760); assay: BLI (Octet), antigen immobilized on AR2G sensors, average of three experiments
T1 construct: Bought reagent; also called recombinant cynomolgus monkey FAPα; not shown: His tag of the vendor's construct (Acro Biosystems FAP-C52H3)
T1 sequence: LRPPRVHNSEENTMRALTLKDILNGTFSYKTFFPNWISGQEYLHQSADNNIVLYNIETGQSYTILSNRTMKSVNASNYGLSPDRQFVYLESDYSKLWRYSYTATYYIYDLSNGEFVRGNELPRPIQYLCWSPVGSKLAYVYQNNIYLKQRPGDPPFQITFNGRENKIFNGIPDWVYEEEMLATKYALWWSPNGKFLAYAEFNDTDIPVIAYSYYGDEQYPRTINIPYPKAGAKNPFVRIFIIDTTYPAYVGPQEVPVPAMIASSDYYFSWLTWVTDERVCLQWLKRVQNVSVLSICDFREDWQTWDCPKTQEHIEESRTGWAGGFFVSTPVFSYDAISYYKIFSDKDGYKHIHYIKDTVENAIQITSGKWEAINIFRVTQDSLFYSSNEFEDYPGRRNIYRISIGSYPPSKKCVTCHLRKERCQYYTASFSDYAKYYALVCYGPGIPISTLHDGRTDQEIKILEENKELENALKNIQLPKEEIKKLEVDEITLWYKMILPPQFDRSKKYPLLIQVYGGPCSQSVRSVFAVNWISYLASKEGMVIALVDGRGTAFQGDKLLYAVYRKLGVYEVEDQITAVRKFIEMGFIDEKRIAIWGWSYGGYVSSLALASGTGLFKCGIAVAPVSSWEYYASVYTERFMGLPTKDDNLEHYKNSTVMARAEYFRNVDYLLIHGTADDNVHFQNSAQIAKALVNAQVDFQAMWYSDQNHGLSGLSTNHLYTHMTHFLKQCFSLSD
Procedure: (§1) Experiments were carried out while shaking at 1,000 RPM at 30° C. Amine Reactive 2nd Generation (AR2G) biosensors (Sartorius, Cat #18-5092) were activated by reaction with 20 mM EDC (N-(3-Dimethylaminopropyl)-N′-ethylcarbodiimide hydrochloride) (Sigma-Aldrich, Cat #03449) and 10 mM s-NHS (N-hydroxysulfosuccinimide sodium salt) (Sigma-Aldrich, Cat #56485) for 300 s. The activated AR2G sensors were loaded with 2.5 μg/mL His-tagged recombinant Human FAPα (Acro Biosystems, Cat #FAP-H5244-100ug) in 10 mM Sodium Acetate pH 5.0 (Sartorius, Cat #18-1069) or 2.5 μg/mL His-tagged recombinant Cynomolgus FAPα (Acro Biosystems, Cat #FAP-C52H3-100ug) in 10 mM Sodium Acetate pH 5.0 for 600 s and quenched with 1 M ethanolamine pH 8.5 (Sartorius Cat #18-1071) for 300 s. After a baseline measurement in Sample Diluent (1000 s; Sartorius, Cat #18-1104), the association (100 s) and dissociation (4,000 s) of functionally monovalent antibody was determined using a concentration range of 0.78-800 nM with two-fold dilution steps in Sample Diluent. The molecular mass of the antibodies used for the calculations was calculated from the sequences.
(§2) The Y-axis was aligned to the last 10 s of the baseline; Interstep Correction alignment to dissociation and Savitzky-Golay filtering were applied. Data traces with a response <0.05 nm were excluded from analysis. […] The data were fitted with the 1:1 Global Full fit model using a window of interest for the association of 100 s and dissociation time set 4,000 s.

[2] = biological target: T2, His-tagged recombinant Human FAPα (Acro Biosystems, Cat #FAP-H5244-100ug) (human, UniProt Q12884 26-760); assay: as above
T2 construct: Bought reagent; not shown: His tag
T2 sequence (looked up): T1 sequence with P4S, F236V, D392E
Procedure: as §1, §2

B1: BisG1-FAPα-FERL/DR4-FERR (bispecific antibody, human IgG1, kappa, lambda)
heavy 1: EVQLLESGGGLVQPGGSPRLSCEASGFTFSSYALSWVRQAPGKGLEWVSAISGSGGGRYYADSVKGRFTISRDNSKNTLFLQMNSLRAEDTAVYYCAKEGYSSSGTYWDHWGQGTLVTVSSASTKGPSVFPLAPSSKSTSGGTAALGCLVKDYFPEPVTVSWNSGALTSGVHTFPAVLQSSGLYSLSSVVTVPSSSLGTQTYICNVNHKPSNTKVDKRVEPKSCDKTHTCPPCPAPEFERGPSVFLFPPKPKDTLMISRTPEVTCVVVDVSHEDPEVKFNWYVDGVEVHNAKTKPREEQYNSTYRVVSVLTVLHQDWLNGKEYKCKVSNKALPAPIEKTISKAKGQPREPQVYTLPPSREEMTKNQVSLTCLVKGFYPSDIAVEWESNGQPENNYKTTPPVLDSDGSFLLYSKLTVDKSRWQQGNVFSCSVMHEALHNHYTQKSLSLSPG
light 1: AIQMTQSPSSVSASVGDRVTITCRASQGVSSWLAWYQQKPGRAPKLLIYVASTLQSGVPSRFSGSGSGTDFTLTINSLQPEDFATYYCQQANSFPPTFGQGTRLEMKRTVAAPSVFIFPPSDEQLKSGTASVVCLLNNFYPREAKVQWKVDNALQSGNSQESVTEQDSKDSTYSLSSTLTLSKADYEKHKVYACEVTHQGLSSPVTKSFNRGEC
heavy 2: QVQLQESGPGLVKPSGTLSLTCAVSGGSISSYSWWSWIRQPPGKGLEWIGELYHSGSTNYNPSLKSRVTISVDKSKNQFSLKLRSVTAADTAVYYCVRGVATIDYWGQGTLVTVSSASTKGPSVFPLAPSSKSTSGGTAALGCLVKDYFPEPVTVSWNSGALTSGVHTFPAVLQSSGLYSLSSVVTVPSSSLGTQTYICNVNHKPSNTKVDKRVEPKSCDKTHTCPPCPAPEFERGPSVFLFPPKPKDTLMISRTPEVTCVVVDVSHEDPEVKFNWYVDGVEVHNAKTKPREEQYNSTYRVVSVLTVLHQDWLNGKEYKCKVSNKALPAPIEKTISKAKGQPREPQVYTLPPSREEMTKNQVSLTCLVKGFYPSDIAVEWESNGQPENNYKTTPPVLDSDGSFFLYSRLTVDKSRWQQGNVFSCSVMHEALHNHYTQKSLSLSPG
light 2: QSALTQPPSASGSPGQSVTISCTGTSSDVGGYNFVSWYQQDPGKAPKLLIYEVTKRPSGVPDRFSGSKSGNTASLTVSGLQAEDEADYYCSSYAGSNNVMFGGGTKLTVLGQPKAAPSVTLFPPSSEELQANKATLVCLISDFYPGAVTVAWKADSSPVKAGVETTTPSKQSNNKYAASSYLSLTPEQWKSHRSYSCQVTHEGSTVEKTVAPTECS
notes: Human IgG1 bispecific made by controlled Fab-arm exchange of IgG1-FAPα-FERL and IgG1-DR4-FERR; monovalent for FAPα and for DR4; also called GEN1057
B1 showed a Kd [1] of 0.037 nM, a koff [1] of 2.8e-05 s⁻¹ and a kon [1] of 770000 M⁻¹ s⁻¹. The Kd [2] was 0.026 nM, the koff [2] was 3e-05 s⁻¹ and the kon [2] was 1.1e+06 M⁻¹ s⁻¹.

B2: BisG1-FAPα-FERL/b12-FERR (bispecific antibody, human IgG1, kappa)
heavy 1: B1 heavy 1
light 1: B1 light 1
heavy 2: QVQLVQSGAEVKKPGASVKVSCQASGYRFSNFVIHWVRQAPGQRFEWMGWINPYNGNKEFSAKFQDRVTFTADTSANTAYMELRSLRSADTAVYYCARVGPYSWDDSPQDNYYMDVWGKGTTVIVSSASTKGPSVFPLAPSSKSTSGGTAALGCLVKDYFPEPVTVSWNSGALTSGVHTFPAVLQSSGLYSLSSVVTVPSSSLGTQTYICNVNHKPSNTKVDKRVEPKSCDKTHTCPPCPAPEFERGPSVFLFPPKPKDTLMISRTPEVTCVVVDVSHEDPEVKFNWYVDGVEVHNAKTKPREEQYNSTYRVVSVLTVLHQDWLNGKEYKCKVSNKALPAPIEKTISKAKGQPREPQVYTLPPSREEMTKNQVSLTCLVKGFYPSDIAVEWESNGQPENNYKTTPPVLDSDGSFFLYSRLTVDKSRWQQGNVFSCSVMHEALHNHYTQKSLSLSPG
light 2: EIVLTQSPGTLSLSPGERATFSCRSSHSIRSRRVAWYQHKPGQAPRLVIHGVSNRASGISDRFSGSGSGTDFTLTITRVEPEDFALYYCQVYGASSYTFGQGTKLERKRTVAAPSVFIFPPSDEQLKSGTASVVCLLNNFYPREAKVQWKVDNALQSGNSQESVTEQDSKDSTYSLSSTLTLSKADYEKHKVYACEVTHQGLSSPVTKSFNRGEC
B2 showed a Kd [1] of 0.034 nM, a koff [1] of 2.5e-05 s⁻¹ and a kon [1] of 750000 M⁻¹ s⁻¹. The Kd [2] was 0.017 nM, the koff [2] was 2.1e-05 s⁻¹ and the kon [2] was 1.2e+06 M⁻¹ s⁻¹.
